Laboratory results: publication PMC6368335, “Inhibition of the Staphylococcus aureus c-di-AMP cyclase DacA by direct interaction with the phosphoglucosamine mutase GlmM” (PLoS Pathogens, 2019)

Assays:
[1] = molecular target: S. aureus DacA catalytic domain (DacACD), tag-less (S. aureus); assay: native MS; purified tag-less DacACD/GlmM complex, 13.5 uM in 200 mM ammonium acetate pH 7.5, nanoelectrospray, Waters Synapt QToF; species deconvoluted with Amphitrite
[2] = molecular target: S. aureus phosphoglucosamine mutase GlmM, tag-less (S. aureus) (UniProt P0C0V7); assay: as above; settings: scale: DacACD per GlmM
[3] = molecular target: S. aureus DacA catalytic domain (DacACD), tag-less (S. aureus); assay: SEC-SAXS; tag-less DacACD, GlmM and the DacACD/GlmM complex on a Superdex 200 5/150 column coupled to the SAXS beam, 30 mM Tris pH 7.5, 150 mM NaCl; envelopes reconstructed, crystal structures fitted
[4] = molecular target: S. aureus phosphoglucosamine mutase GlmM, tag-less (S. aureus) (UniProt P0C0V7); assay: as above
[5] = molecular target: S. aureus phosphoglucosamine mutase GlmM, C-terminally His-tagged (GlmM-His) (S. aureus) (UniProt P0C0V7)
[6] = molecular target: S. aureus DacA catalytic domain (DacACD), tag-less (S. aureus); assay: SEC; tag-less proteins after Ni-NTA and thrombin cleavage on a Superdex 200 10/300 column, UV at 280 nm
[7] = molecular target: S. aureus phosphoglucosamine mutase GlmM, tag-less (S. aureus) (UniProt P0C0V7); assay: SEC-MALS + native MS; purified tag-less DacACD/GlmM complex; SEC-MALS: 100 ul at 18 mg/ml, Superdex 200 Increase 10/300, 30 mM Tris pH 7.5, 150 mM NaCl; native MS: 13.5 uM in 200 mM ammonium acetate
[8] = molecular target: S. aureus DacACD-C variant (N166C, T172C), tag-less (S. aureus); assay: SEC; tag-less proteins after Ni-NTA and thrombin cleavage on a Superdex 200 10/300 column, UV at 280 nm
[9] = molecular target: S. aureus DacACD-K variant (N166K, T172K), tag-less (S. aureus); assay: as above
[10] = molecular target: the molecule itself; assay: native MS; purified tag-less DacACD/GlmM complex, 13.5 uM in 200 mM ammonium acetate pH 7.5, nanoelectrospray, Waters Synapt QToF; species deconvoluted with Amphitrite

S. aureus DacA catalytic domain (DacACD), tag-less (domain or fragment)
stoichiometry N [1]: 2 | stoichiometry N [2]: 1 | stoichiometry N [3]: 2 | stoichiometry N (DacACD dimer per GlmM dimer) [4]: 1 | GlmM phosphoglucosamine mutase activity (coupled radioactive assay with GlmU), DacA in 5- to 400-fold excess over GlmM; no inhibition at 5- to 50-fold excess [5]: 15% | stoichiometry N [6]: 2 | stoichiometry N (DacACD dimer per GlmM dimer (2:2)) [7]: 1

S. aureus DacACD-C variant (N166C, T172C), tag-less (domain or fragment)
stoichiometry N [8]: 2

S. aureus DacACD-K variant (N166K, T172K), tag-less (domain or fragment)
stoichiometry N [9]: 2

B1: S. aureus phosphoglucosamine mutase GlmM, tag-less (enzyme)
chain: MGKYFGTDGVRGVANQELTPELAFKLGRYGGYVLAHNKGEKHPRVLVGRDTRVSGEMLESALIAGLISIGAEVMRLGIISTPGVAYLTRDMGAELGVMISASHNPVADNGIKFFGSDGFKLSDEQENEIEALLDQENPELPRPVGNDIVHYSDYFEGAQKYLSYLKSTVDVNFEGLKIALDGANGSTSSLAPFLFGDLEADTETIGCSPDGYNINEKCGSTHPEKLAEKVVETESDFGLAFDGDGDRIIAVDENGQIVDGDQIMFIIGQEMHKNQELNNDMIVSTVMSNLGFYKALEQEGIKSNKTKVGDRYVVEEMRRGNYNLGGEQSGHIVMMDYNTTGDGLLTGIQLASVIKMTGKSLSELAGQMKKYPQSLINVRVTDKYRVEENVDVKEVMTKVEVEMNGEGRILVRPSGTEPLVRVMVEAATDEDAERFAQQIADVVQDKMGLDK
notes: phosphoglucosamine mutase GlmM of S. aureus (LAC* genomic DNA); C-terminal 6-His tag removed at the thrombin site; In the tag-less DacACD/GlmM complex (SASBDB SASDE78) this chain stands with m1; also called tag-less GlmM; source: E. coli BL21 (DE3), purified (Ni-NTA, thrombin cleavage of the His-tag, size exclusion chromatography); not shown: His6, C-terminal, cleaved
stoichiometry N [10]: 2
